Earlier results as cited in paper PMC2812830.

Target: LAT pY191 phosphopeptide pY191 peptide (Homo sapiens) (UniProt O43561)
Test: ITC

For Grb2 (from UniProt P62993), the Kd is listed as 286 nM.
